Source: article PMC8119208 (JCI Insight, 2021)

Target: T1, GST-tagged PTP1B, full length (UniProt P18031 1-435)
T1 construct: protein tyrosine phosphatase PTP1B (PTPN1), full-length cDNA subcloned into pGEX-4T1; The cDNA probably comes from pJ3H PTP1B (Addgene 8601); also called GST-PTP1B; source: E. coli, purified (glutathione resin)
T1 sequence (looked up): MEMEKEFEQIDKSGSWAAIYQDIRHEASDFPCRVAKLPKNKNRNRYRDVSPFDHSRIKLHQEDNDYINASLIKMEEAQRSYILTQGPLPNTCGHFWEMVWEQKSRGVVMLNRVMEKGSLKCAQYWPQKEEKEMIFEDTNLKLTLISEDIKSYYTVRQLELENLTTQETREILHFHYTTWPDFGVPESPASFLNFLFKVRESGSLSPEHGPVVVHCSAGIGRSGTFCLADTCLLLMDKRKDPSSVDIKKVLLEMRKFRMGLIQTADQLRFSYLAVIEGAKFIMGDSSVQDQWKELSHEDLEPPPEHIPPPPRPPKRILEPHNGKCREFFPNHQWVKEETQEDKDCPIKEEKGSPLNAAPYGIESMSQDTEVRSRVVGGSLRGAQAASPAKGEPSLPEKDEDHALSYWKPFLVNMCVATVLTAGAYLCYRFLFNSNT
Assay: pull-down; GST pull-down with purified proteins from E. coli: His-PDL1-CT / MBP-PDL1-CT (0.5 μg) and 0.5 μg GST or GST-fusion proteins
Conditions: both partners purified

binding result: binds
B1: MBP-tagged PD-L1 cytoplasmic domain (domain or fragment, human, UniProt Q9NZQ7 262-290, looked up)
chain: RKGRMMDVKKCGIQDTNSKKQSDTHLEET
notes: PD-L1 cytoplasmic domain, human, amino acids 262-290, subcloned into pET-His6 (Addgene plasmid 29656; named in the acknowledgements as PET His6 MBP TEV LIC cloning vector); The results and legend call it MBP-PDL1-CT, the methods of the pull-down His-PDL1-CT; also called MBP-PDL1-CT; His-PDL1-CT; source: E. coli, purified (His resin)
